Consider seven molecules from publication PMC9935876, “Structure of the planar cell polarity cadherins Fat4 and Dachsous1” (Nature Communications, 2023).

As a reminder, the Kd is the equilibrium constant for the complex coming apart. In general, stoichiometry N refers to a count of units in the complex or per binding partner.

Test [1] has as its target T1, Human Fat4(EC1-4) (human, UniProt Q6V0I7 43-475).
T1 construct: Fat4, human, EC1-EC4, aa43-475; Tags were cleaved only for the constructs meant for co-crystallisation; nothing is said for ITC; also called Fat4 EC1–EC4
T1 sequence: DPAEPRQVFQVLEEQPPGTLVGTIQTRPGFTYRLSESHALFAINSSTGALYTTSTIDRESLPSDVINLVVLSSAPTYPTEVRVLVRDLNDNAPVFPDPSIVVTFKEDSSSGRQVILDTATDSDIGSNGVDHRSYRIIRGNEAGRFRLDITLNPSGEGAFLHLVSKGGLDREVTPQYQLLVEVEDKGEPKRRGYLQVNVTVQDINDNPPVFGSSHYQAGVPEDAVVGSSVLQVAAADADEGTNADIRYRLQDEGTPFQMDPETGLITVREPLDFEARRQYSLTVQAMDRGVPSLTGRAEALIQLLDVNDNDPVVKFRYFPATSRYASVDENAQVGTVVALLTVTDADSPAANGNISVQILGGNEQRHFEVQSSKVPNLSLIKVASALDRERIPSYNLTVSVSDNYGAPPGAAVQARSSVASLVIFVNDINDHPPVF
As to the kind of experiment: ITC; MicroCal ITC200; Fat4 construct 30 µM in the sample cell, Dchs1 construct 300 µM as titrant; 20 °C; fitted with one set of sites; two independent experiments. As to conditions: both partners purified. (In general: Isothermal titration calorimetry measures the heat released or taken up as one component is titrated into another.)

The next test has as its target T2, human Fat4(EC1–4) (human, UniProt Q6V0I7 43-475).
T2 construct: human Fat4, EC1–EC4, aa43–475; Form used in ITC; also called wild type Fat4(EC1–4)
T2 sequence: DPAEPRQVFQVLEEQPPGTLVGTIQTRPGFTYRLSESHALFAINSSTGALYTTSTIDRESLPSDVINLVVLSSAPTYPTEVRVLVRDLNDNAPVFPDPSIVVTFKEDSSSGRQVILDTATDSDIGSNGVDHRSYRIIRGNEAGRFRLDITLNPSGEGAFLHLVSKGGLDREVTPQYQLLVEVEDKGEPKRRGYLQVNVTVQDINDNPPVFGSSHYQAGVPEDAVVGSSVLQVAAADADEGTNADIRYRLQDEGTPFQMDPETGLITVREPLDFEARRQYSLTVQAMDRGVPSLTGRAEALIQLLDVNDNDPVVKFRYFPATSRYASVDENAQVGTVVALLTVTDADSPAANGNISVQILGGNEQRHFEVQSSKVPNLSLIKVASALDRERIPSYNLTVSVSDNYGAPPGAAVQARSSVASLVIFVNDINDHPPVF
Briefly: ITC; MicroCal ITC200; Fat4 constructs at 30 µM in the sample cell, Dchs1 constructs at 300 µM as titrants; 20 °C; one set of sites. The note with it: both partners purified.

The next test concerns the target T3, Human Fat4(EC1-4) R152A (human, UniProt Q6V0I7 43-475, R152A).
T3 construct: human Fat4, EC1-EC4, aa43-475, with R152A in EC2; also called Fat4R152A(EC1-4); Fat4R152A
T3 sequence: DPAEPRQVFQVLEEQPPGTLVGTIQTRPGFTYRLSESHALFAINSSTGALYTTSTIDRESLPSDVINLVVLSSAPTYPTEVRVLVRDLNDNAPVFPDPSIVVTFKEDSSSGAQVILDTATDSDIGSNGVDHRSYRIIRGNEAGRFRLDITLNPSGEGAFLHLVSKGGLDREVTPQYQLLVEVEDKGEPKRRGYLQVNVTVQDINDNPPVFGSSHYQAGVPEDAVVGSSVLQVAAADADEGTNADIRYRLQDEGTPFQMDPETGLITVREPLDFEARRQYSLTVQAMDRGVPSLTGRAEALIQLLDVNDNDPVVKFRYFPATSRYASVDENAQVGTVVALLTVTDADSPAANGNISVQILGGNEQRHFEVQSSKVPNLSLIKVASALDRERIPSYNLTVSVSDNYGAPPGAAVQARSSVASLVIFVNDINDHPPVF
The test is described as above.

For test [2], the target named is Human Fat4R152A(EC1-4) (human) (UniProt Q6V0I7). As to the kind of experiment: ITC; MicroCal ITC200; Fat4 construct 30 µM in the sample cell, Dchs1 construct 300 µM as titrant; 20 °C; fitted with one set of sites; two independent experiments.
Test [3] concerns the target T4, Human Fat4(EC1-4) (human, UniProt Q6V0I7 43-475).
T4 construct: human Fat4, extracellular cadherin domains EC1-EC4, aa43-475; A 3C protease site stands between the protein and the C-terminal BAP-tag and His6; also called WT
T4 sequence: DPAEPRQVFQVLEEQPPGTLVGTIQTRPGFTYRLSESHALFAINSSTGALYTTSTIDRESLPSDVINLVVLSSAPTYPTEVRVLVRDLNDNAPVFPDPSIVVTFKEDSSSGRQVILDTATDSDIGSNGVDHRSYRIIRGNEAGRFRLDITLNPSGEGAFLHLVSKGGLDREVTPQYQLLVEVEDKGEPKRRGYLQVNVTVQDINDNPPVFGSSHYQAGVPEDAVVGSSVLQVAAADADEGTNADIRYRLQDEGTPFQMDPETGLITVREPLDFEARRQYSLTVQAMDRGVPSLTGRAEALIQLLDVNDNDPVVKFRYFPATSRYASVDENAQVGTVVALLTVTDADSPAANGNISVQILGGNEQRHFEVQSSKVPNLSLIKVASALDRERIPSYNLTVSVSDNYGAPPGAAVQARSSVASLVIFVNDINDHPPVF
As to the kind of experiment: ITC; MicroCal ITC200; Fat4 constructs 30 µM in the sample cell, Dchs1 constructs 300 µM as titrants; 20 °C; one set of sites. The note with it: both partners purified.

Values joined by “and” are separate entries in the source; they are usually repeats but may differ in a detail not shown here. Identical values can stand only once. Like-named read-outs stand apart in the source and are kept apart here.

B1: Human Dchs1(EC1-3) (domain or fragment)
chain: DPQAGSLDLQIDEEQPAGTLIGDISAGLPAGTAAPLMYFISAQEGSGVGTDLAIDEHSGVVRTARVLDREQRDRYRFTAVTPDGATVEVTVRVADINDHAPAFPQARAALQVPEHTAFGTRYPLEPARDADAGRLGTQGYALSGDGAGETFRLETRPGPDGTPVPELVVTGELDRENRSHYMLQLEAYDGGSPPRRAQALLDVTLLDINDHAPAFNQSRYHAVVSESLAPGSPVLQVFASDADAGVNGAVTYEINRRQSEGDGPFSIDAHTGLLQLERPLDFEQRRVHELVVQARDGGAHPELGSAFVTVHVRDANDNQPSM
notes: Dchs1 (Dachsous1), human, EC1-EC3, aa43-362
As to B1, the Kd with Human Fat4(EC1-4) [1] was 980 nM and 970 nM.

B2: human Dchs1(EC1–3) (domain or fragment)
chain: DPQAGSLDLQIDEEQPAGTLIGDISAGLPAGTAAPLMYFISAQEGSGVGTDLAIDEHSGVVRTARVLDREQRDRYRFTAVTPDGATVEVTVRVADINDHAPAFPQARAALQVPEHTAFGTRYPLEPARDADAGRLGTQGYALSGDGAGETFRLETRPGPDGTPVPELVVTGELDRENRSHYMLQLEAYDGGSPPRRAQALLDVTLLDINDHAPAFNQSRYHAVVSESLAPGSPVLQVFASDADAGVNGAVTYEINRRQSEGDGPFSIDAHTGLLQLERPLDFEQRRVHELVVQARDGGAHPELGSAFVTVHVRDANDNQPSM
notes: human Dchs1, EC1–EC3, aa43–362; Form used in ITC; also called wild type Dchs1(EC1–3)
Molecule B2 came in with a Kd with human Fat4(EC1–4) of 980 ± 120 nM.

B3: human Dchs1(EC1–4) (domain or fragment)
chain: DPQAGSLDLQIDEEQPAGTLIGDISAGLPAGTAAPLMYFISAQEGSGVGTDLAIDEHSGVVRTARVLDREQRDRYRFTAVTPDGATVEVTVRVADINDHAPAFPQARAALQVPEHTAFGTRYPLEPARDADAGRLGTQGYALSGDGAGETFRLETRPGPDGTPVPELVVTGELDRENRSHYMLQLEAYDGGSPPRRAQALLDVTLLDINDHAPAFNQSRYHAVVSESLAPGSPVLQVFASDADAGVNGAVTYEINRRQSEGDGPFSIDAHTGLLQLERPLDFEQRRVHELVVQARDGGAHPELGSAFVTVHVRDANDNQPSMTVIFLSADGSPQVSEAAPPGQLVARISVSDPDDGDFAHVNVSLEGGEGHFALSTQDSVIYLVCVARRLDREERDAYNLRVTATDSGSPPLRAEAAFVLHVTDVNDNAPAF
With B3, the fold decrease in binding affinity against wild type with Human Fat4(EC1-4) R152A worked out at 9 fold.

B4: human Dchs1(EC1–4) (domain or fragment)
chain: DPQAGSLDLQIDEEQPAGTLIGDISAGLPAGTAAPLMYFISAQEGSGVGTDLAIDEHSGVVRTARVLDREQRDRYRFTAVTPDGATVEVTVRVADINDHAPAFPQARAALQVPEHTAFGTRYPLEPARDADAGRLGTQGYALSGDGAGETFRLETRPGPDGTPVPELVVTGELDRENRSHYMLQLEAYDGGSPPRRAQALLDVTLLDINDHAPAFNQSRYHAVVSESLAPGSPVLQVFASDADAGVNGAVTYEINRRQSEGDGPFSIDAHTGLLQLERPLDFEQRRVHELVVQARDGGAHPELGSAFVTVHVRDANDNQPSMTVIFLSADGSPQVSEAAPPGQLVARISVSDPDDGDFAHVNVSLEGGEGHFALSTQDSVIYLVCVARRLDREERDAYNLRVTATDSGSPPLRAEAAFVLHVTDVNDNAPAF
notes: human Dchs1, EC1–EC4, aa43–472; Form used in ITC; also called Dachsous1(EC1–4); wild type Dchs1(EC1–4)
Take B4: binding in the test with human Fat4(EC1–4) was put at a Kd of 470 ± 130 nM.

B5: Human Dchs1(EC1-4) (domain or fragment)
chain: DPQAGSLDLQIDEEQPAGTLIGDISAGLPAGTAAPLMYFISAQEGSGVGTDLAIDEHSGVVRTARVLDREQRDRYRFTAVTPDGATVEVTVRVADINDHAPAFPQARAALQVPEHTAFGTRYPLEPARDADAGRLGTQGYALSGDGAGETFRLETRPGPDGTPVPELVVTGELDRENRSHYMLQLEAYDGGSPPRRAQALLDVTLLDINDHAPAFNQSRYHAVVSESLAPGSPVLQVFASDADAGVNGAVTYEINRRQSEGDGPFSIDAHTGLLQLERPLDFEQRRVHELVVQARDGGAHPELGSAFVTVHVRDANDNQPSMTVIFLSADGSPQVSEAAPPGQLVARISVSDPDDGDFAHVNVSLEGGEGHFALSTQDSVIYLVCVARRLDREERDAYNLRVTATDSGSPPLRAEAAFVLHVTDVNDNAPAF
Take B5: the Kd was 3390 nM and 5180 nM in test [2]; 4280 nM in test [2] (mean).

B6: Human Dchs1(EC1-4) F79A (domain or fragment)
chain: DPQAGSLDLQIDEEQPAGTLIGDISAGLPAGTAAPLMYAISAQEGSGVGTDLAIDEHSGVVRTARVLDREQRDRYRFTAVTPDGATVEVTVRVADINDHAPAFPQARAALQVPEHTAFGTRYPLEPARDADAGRLGTQGYALSGDGAGETFRLETRPGPDGTPVPELVVTGELDRENRSHYMLQLEAYDGGSPPRRAQALLDVTLLDINDHAPAFNQSRYHAVVSESLAPGSPVLQVFASDADAGVNGAVTYEINRRQSEGDGPFSIDAHTGLLQLERPLDFEQRRVHELVVQARDGGAHPELGSAFVTVHVRDANDNQPSMTVIFLSADGSPQVSEAAPPGQLVARISVSDPDDGDFAHVNVSLEGGEGHFALSTQDSVIYLVCVARRLDREERDAYNLRVTATDSGSPPLRAEAAFVLHVTDVNDNAPAF
notes: human Dachsous1 (Dchs1), EC1-EC4, aa43-472, with F79A in EC1; also called Dchs1F79A(EC1-4); Dchs1F79A
Regarding B6, in the test with Human Fat4(EC1-4) [3], the “stoichiometry N” value is 0.924 ± 0.00978 sites.

B7: Human Dchs1(EC1-4) R297A (domain or fragment)
chain: DPQAGSLDLQIDEEQPAGTLIGDISAGLPAGTAAPLMYFISAQEGSGVGTDLAIDEHSGVVRTARVLDREQRDRYRFTAVTPDGATVEVTVRVADINDHAPAFPQARAALQVPEHTAFGTRYPLEPARDADAGRLGTQGYALSGDGAGETFRLETRPGPDGTPVPELVVTGELDRENRSHYMLQLEAYDGGSPPRRAQALLDVTLLDINDHAPAFNQSRYHAVVSESLAPGSPVLQVFASDADAGVNGAVTYEINRAQSEGDGPFSIDAHTGLLQLERPLDFEQRRVHELVVQARDGGAHPELGSAFVTVHVRDANDNQPSMTVIFLSADGSPQVSEAAPPGQLVARISVSDPDDGDFAHVNVSLEGGEGHFALSTQDSVIYLVCVARRLDREERDAYNLRVTATDSGSPPLRAEAAFVLHVTDVNDNAPAF
notes: human Dachsous1 (Dchs1), EC1-EC4, aa43-472, with R297A; also called Dchs1R297A(EC1-4); Dchs1R297A
As to B7, in the test with Human Fat4(EC1-4) [3], the “stoichiometry N” value came out at 1.02 ± 0.138 sites.
